Blank lines part the entries; values can stand above or below the molecule they belong to.
Legend:
[1] = target: nucleosome core particle carrying a methyllysine analogue of histone H3K9 (H3Kc9me3) (Xenopus laevis); experiment: BLI
[2] = target: BAH domain of human TNRC18 (amino acids 2785–2968) (human) (UniProt O15417); experiment: ITC
[3] = target: TNRC18 BAH domain, 2785-2968 (UniProt O15417); experiment: isothermal titration calorimetry; conditions: reference: H3(1–22)K9me3 peptide; sites T11
[4] = target: T1, amino acids 718–792 of TNRC18 (Sin3-interaction motif of TNRC18) (human, UniProt O15417 718-792); experiment: ITC
T1 sequence (peptide, looked up): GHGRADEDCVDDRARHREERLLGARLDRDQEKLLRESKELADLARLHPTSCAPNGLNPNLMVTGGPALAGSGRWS

Chain of BAH domain of human TNRC18 (amino acids 2785–2968) (human) (O15417 2785-2968): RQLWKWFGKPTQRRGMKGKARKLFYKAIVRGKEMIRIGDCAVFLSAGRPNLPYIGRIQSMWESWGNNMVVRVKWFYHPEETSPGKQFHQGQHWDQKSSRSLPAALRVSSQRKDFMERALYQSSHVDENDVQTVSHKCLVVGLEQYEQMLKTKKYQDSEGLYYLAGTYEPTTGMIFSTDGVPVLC

Kd [1]: 0.0188 µM
Molecule: BAH domain of human TNRC18 (amino acids 2785–2968) (from UniProt O15417 2785-2968) (domain or fragment)

Kd [2]: 252 µM
Molecule: H3K9me2 peptide

binding against the reference [3]: same
Molecule: histone H3 1-22 (from UniProt P68431) H3(1–22)K9me3 T11ph peptide

Kd [4]: 104 µM
B1: PAH domain of Sin3 (domain or fragment)
chain: QRLKVEDALSYLDQVKLQFGSQPQVYNDFLDIMKEFKSQSIDTPGVISRVSQLFKGHPDLIMGFNTFLPPG
